Results as given in US20110129816A1 (NATIONAL UNIVERSITY CORPORATION UNIVERSITY OF TOYAMA, published 2011).
Where a chain is given by its changes, count along the chain named. Read-outs that look alike come from different tables or passages of the source.

T1: nucleoprotein of influenza virus B/Panama/45/90 (influenza B virus B/Panama/45/90, UniProt O36433 1-560)
T1 sequence: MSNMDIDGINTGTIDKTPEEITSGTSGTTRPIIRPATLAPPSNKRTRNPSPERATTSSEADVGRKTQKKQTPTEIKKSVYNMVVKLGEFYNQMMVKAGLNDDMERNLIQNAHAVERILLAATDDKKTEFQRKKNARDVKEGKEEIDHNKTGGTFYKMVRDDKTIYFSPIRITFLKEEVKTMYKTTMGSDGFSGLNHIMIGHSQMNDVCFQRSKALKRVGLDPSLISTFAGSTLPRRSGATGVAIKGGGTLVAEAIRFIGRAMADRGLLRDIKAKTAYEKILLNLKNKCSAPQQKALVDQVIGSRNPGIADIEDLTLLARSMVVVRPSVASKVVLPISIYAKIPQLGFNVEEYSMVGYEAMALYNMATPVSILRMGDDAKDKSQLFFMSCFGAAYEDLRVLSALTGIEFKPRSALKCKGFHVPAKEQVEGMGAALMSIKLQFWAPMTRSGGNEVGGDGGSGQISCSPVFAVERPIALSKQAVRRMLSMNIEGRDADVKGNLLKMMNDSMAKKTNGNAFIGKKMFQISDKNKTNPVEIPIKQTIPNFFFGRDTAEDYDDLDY

T2: nucleoprotein of influenza virus B/Singapore/222/79 (influenza B virus B/Singapore/222/79, UniProt P04666 1-560)
T2 sequence: T1 sequence with T22I, T28A, R131K, I406T

T3: nucleoprotein of influenza virus B/Ann Arbor/1/86 (viral strain) (influenza B virus B/Ann Arbor/1/86, UniProt P11102 1-560)
T3 sequence: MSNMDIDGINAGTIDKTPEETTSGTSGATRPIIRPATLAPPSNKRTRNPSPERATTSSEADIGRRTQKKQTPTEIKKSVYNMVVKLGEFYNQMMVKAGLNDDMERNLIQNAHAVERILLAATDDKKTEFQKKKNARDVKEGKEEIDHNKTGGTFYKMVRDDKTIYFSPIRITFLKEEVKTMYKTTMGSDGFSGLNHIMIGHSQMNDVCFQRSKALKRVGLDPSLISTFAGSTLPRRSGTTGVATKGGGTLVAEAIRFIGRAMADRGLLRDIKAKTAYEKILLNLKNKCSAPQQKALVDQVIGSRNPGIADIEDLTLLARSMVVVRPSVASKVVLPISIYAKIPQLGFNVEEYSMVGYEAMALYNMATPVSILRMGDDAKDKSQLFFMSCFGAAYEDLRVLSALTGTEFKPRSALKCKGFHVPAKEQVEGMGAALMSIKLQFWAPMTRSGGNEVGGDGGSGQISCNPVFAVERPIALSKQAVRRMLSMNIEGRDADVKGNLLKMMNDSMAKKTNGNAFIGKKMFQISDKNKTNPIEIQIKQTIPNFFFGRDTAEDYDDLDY

B1: human anti-influenza B virus nucleoprotein monoclonal antibody 23G327 (antibody, V domains shown)
VH: QVQLVQSGAEVKRPGASVKVSCKASGYNLIDFYVNWVRQVPGQGLEWMGYINPDSGGAHYEGKFQGRVIMTRDTSINTAYMELPSLTSDDTAVYFCARGASSGLLTYYYGLDVWGEGTTVIVSS
VL: DIQMTQSPSSLSASIGDRVTITCRASPGINSYLAWYQHKPGKAPKLLIYAASTLQSGVPSRFSGSGSGTDFTLTISSLQPEDVATYYCQKYNSAPWTFGPGTKVEIK
notes: also called 23G327 antibody
B2: human anti-influenza A virus nucleoprotein monoclonal antibody 23G494 (antibody, V domains shown)
VH: QVQLVQSGGGLVKPGGSLRLSCAGSGFSFSDYYMTWIRQAPGKGLEWVSSINSGSTVTNYADSVQGRFTISRDKNSVYLQMNSLRTEDTAVYYCARDFGIKAGTSDYWGQGTLVTVSS
VL: DIQMTQSPSSLSASVGDRVTITCRASQTISNFLNWYQQKPGKAPKLLIYAASRLQSWVPSRFTGSGSGTDFALTISSLQPEDFATYYCQQTFSPRITFGPGTKVEMKR
notes: also called 23G494 antibody
B3: human anti-influenza A virus nucleoprotein monoclonal antibody 23G268 (antibody, V domains shown)
VH: QVQLVQSGAVVKKPGDSVKVSCKASGYTFTTYWMHWVRQAPGQGPEWMGIVNPTGGTVMYAKKFQGRVIMTRDTSTTTVFLQLNGLESEDTAIYYCARDLGPARVDFDWLSTFVSWGQGTLVTVSS
VL: DIQMTQSPSSLSASVGDRVIITCRASQGITRHLNWYQQKSGKAPKLLIYDASSLQSGVPSRFSGSGSGADFTLTISSVQPEDFATYYCQQSYSNPPTFGPGTKVDIKR
notes: also called 23G268 antibody
B4: human anti-influenza A virus nucleoprotein monoclonal antibody 23G312 (antibody, V domains shown)
VH: QVQLVQSGGGLVQPGRSLRLSCIASGFSFDDYAMHWVRQIPGKGLEWVSGISWNSGARGYADSVKGRFTISRDNAKNSLYLQMNSLRVGDTAFYYCARDMGAGPNDYDTSGNYPLHLYGMDVWGHGTTVTVSS
VL: EIVLTQSPATLSVSPGDRATLSCRASQSVSDKLAWYQQKPGQAPRLLIYGAYTRATGTPARFSGSGSGTEFTLSITGLQAEDFAIYYCHQYNNWPLTFGGGTKVDIK
notes: also called 23G312 antibody
B5: human anti-influenza A virus nucleoprotein monoclonal antibody 23G447 (antibody, V domains shown)
VH: QVQLQESGPGLVKPSQTLSLTCSVSGGSISNPDHYWNWIRQPPGKGLEWIGYIYYTGRTWYSPSLKSRVSLSVDTSKSQFSLNVDSVIAADTAVYYCARSHVWFGELYWGQGALVTVSS
VL: QSVLTQPPSVSAAPGQKVTISCSGRSSNVGDNYVSWYQQFPGTAPKLLIYDNTKRPSGIPDRFSGSKSGTSATLGITGLQTGDEAAYYCATWDSVLSAGVFGGGTKLTVL
notes: also called 23G447 antibody
B6: human anti-influenza A virus nucleoprotein monoclonal antibody 23G285 (antibody, V domains shown)
VH: QVQLVQSGGGVVQPGRSLRLSCAASGFTFSRYGMHWVRQAPGKGLEWVAVILYEGINKDYADSVKGRFTISRDNSKNTLYLQMNSLRAEDTAVYYCARDRELRLDYWGQGTLVTVSS
VL: QSVLTQPPSVSGAPGQRVTFSCTGSSSNIGAGYDVNWYQQLPGTAPKVLIYGNTNRPSGVPDRFSASKSGTSASLAITGLQAEDEADYYCQSYDSSLRGYVFGTGTKVSVL
notes: also called 23G285 antibody
B7: human anti-influenza A virus nucleoprotein monoclonal antibody 23G272 (antibody, V domains shown)
VH: QVQLVQSGAEVKKPGSSVKVSCKATGDTFSSYSISWVRQAPGQGLEWMGRVTPSFGISLYAQKFQGRVTITADRSSSTAYMELNNLTSDDTAVYYCAAGGLVVVVANHWGQGTLVTVSS
VL: EIVLTQSPATLSASVGDRVTITCRASQDITSSLGWYQQRAGEAPKLLLFAASRLESGVPSRFSGSGSGTEYTLTISNLQPEDFATYYCLHYFGSRPWTFGQGTKVEIKR
notes: also called 23G272 antibody

Key:
[1] = target: nucleoprotein of influenza virus A/Beijing/262/95 (H1N1) (influenza A virus A/Beijing/262/95 (H1N1)); assay: sandwich CLIA, acridinium label M322211, S/N>=2.1
[2] = target: nucleoprotein of influenza virus A/Panama/2007/99 (H3N2) (influenza A virus A/Panama/2007/99 (H3N2)); assay: sandwich CLIA, acridinium label M322211, S/N>=2.1
[3] = target: recombinant influenza A virus nucleoprotein (influenza A virus A/Puerto Rico/8/34, UniProt P03466 1-498); assay: ELISA on coated recombinant nucleoprotein, culture supernatant
[4] = target: T1, nucleoprotein of influenza virus …; assay: same-clone sandwich CLIA
[5] = target: T2, nucleoprotein of influenza virus …; assay: same-clone sandwich CLIA
[6] = target: T3, nucleoprotein of influenza virus B/Ann …; assay: same-clone sandwich CLIA
[7] = target: nucleoprotein of influenza virus B/Victoria/504/00 (influenza B virus B/Victoria/504/00); assay: sandwich CLIA, acridinium label M2110171, S/N>=2.1
[8] = target: nucleoprotein of influenza virus B/Victoria/504/00 (influenza B virus B/Victoria/504/00); assay: SPR (Biacore 2000), antibody captured by anti-IgG
[9] = target: nucleoprotein of influenza virus B/Victoria/504/00 (influenza B virus B/Victoria/504/00); assay: sandwich CLIA, acridinium label 23G327, S/N>=2.1
[10] = target: T1, nucleoprotein of influenza virus …; assay: same-clone sandwich CLIA; remark: listed apart in the source
[11] = target: T2, nucleoprotein of influenza virus …; assay: same-clone sandwich CLIA; remark: listed apart in the source
[12] = target: T3, nucleoprotein of influenza virus B/Ann …; assay: same-clone sandwich CLIA; remark: listed apart in the source
[13] = target: nucleoprotein of influenza virus A/Beijing/262/95 (H1N1) (influenza A virus A/Beijing/262/95 (H1N1)); assay: sandwich CLIA, acridinium label 23G285, S/N>=2.1
[14] = target: nucleoprotein of influenza virus A/Panama/2007/99 (H3N2) (influenza A virus A/Panama/2007/99 (H3N2)); assay: sandwich CLIA, acridinium label 23G285, S/N>=2.1
[15] = target: nucleoprotein of influenza virus A/Beijing/262/95 (H1N1) (influenza A virus A/Beijing/262/95 (H1N1)); assay: SPR (Biacore 2000), antibody fixed directly on CM5, virus 10 µg/mL

Molecule | binding result [10] | binding result [11] | binding result [12] | other results
mouse anti-influenza A virus nucleoprotein monoclonal antibody ATCC HB-65 | – | – | – | detection sensitivity [1]: 50 ng/mL; detection sensitivity [2]: 50 ng/mL
B1 | – | – | – | binding result [3]: no binding; binding result [4]: binds; binding result [5]: binds; binding result [6]: binds; detection sensitivity [7]: 31.3 ng/mL; reactivity (bound antigen per bound antibody) relative to 41027 [8]: 2 fold; reactivity (bound antigen per bound antibody) relative to M2110171 [8]: 1.2 fold; reactivity (bound antigen per bound antibody) relative to antibody 2/3 [8]: 0.8 fold; detection sensitivity [9]: 125 ng/mL
B2 | no binding (tested: S/N<2.1) | no binding (tested: S/N<2.1) | no binding (tested: S/N<2.1) | –
B3 | no binding (tested: S/N<2.1) | no binding (tested: S/N<2.1) | no binding (tested: S/N<2.1) | detection sensitivity [13]: 6.25 ng/mL; detection sensitivity [14]: 6.25 ng/mL
B4 | no binding (tested: S/N<2.1) | no binding (tested: S/N<2.1) | no binding (tested: S/N<2.1) | –
B5 | no binding (tested: S/N<2.1) | no binding (tested: S/N<2.1) | no binding (tested: S/N<2.1) | –
B6 | no binding (tested: S/N<2.1) | no binding (tested: S/N<2.1) | no binding (tested: S/N<2.1) | –
B7 | no binding (tested: S/N<2.1) | no binding (tested: S/N<2.1) | no binding (tested: S/N<2.1) | amount of bound antigens relative to HB-65 [15]: 10 fold
